Measurements as given in PMC3422339, “Interactions and CCAAT-Binding of Arabidopsis thaliana NF-Y Subunits”.

Target: mouse NF-YA minimal domain;mouse NF-YB HFD;mouse NF-YC HFD (mouse;mouse;mouse, UniProt P23708-2;P63139;P70353 233-303;49-141;27-120, ||)
Assay: agarose EMSA; positive control; 32P EMSA: 20 mM Hepes pH 7.9, 50 mM NaCl, 5% glycerol, 5 mM MgCl2, 5 mM b-ME, 20 C; Cy5 agarose EMSA: 20 nM DNA, 20 mM Tris pH 7.5, 50 mM NaCl, 0.5 mM EDTA, 5 mM MgCl2, 2.5 mM DTT, 0.1 mg/ml BSA, 5% glycerol, 23 C
Conditions: protein: recombinant;recombinant;recombinant; tags: C-terminal His cleaved by thrombin;6His in dimer; untagged in purified trimer;; copies: 1;1;1; label: 5'-Cy5; blunt

Sequence of mouse NF-YA minimal domain;mouse NF-YB HFD;mouse NF-YC HFD (P23708 261-331, chain 1 of 3): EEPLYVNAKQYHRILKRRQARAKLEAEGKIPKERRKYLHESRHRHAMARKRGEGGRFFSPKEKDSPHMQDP
Sequence of mouse NF-YA minimal domain;mouse NF-YB HFD;mouse NF-YC HFD (P63139 49-141, chain 2 of 3): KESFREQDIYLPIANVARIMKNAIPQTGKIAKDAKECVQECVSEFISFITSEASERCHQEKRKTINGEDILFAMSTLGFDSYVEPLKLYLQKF
Sequence of mouse NF-YA minimal domain;mouse NF-YB HFD;mouse NF-YC HFD (P70353 27-120, chain 3 of 3): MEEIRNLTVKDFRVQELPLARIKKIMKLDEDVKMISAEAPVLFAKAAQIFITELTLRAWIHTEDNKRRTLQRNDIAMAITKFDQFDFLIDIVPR

B1: HSP70 CCAAT 31 bp probe (dsDNA)
DNA 1: CTTCTGAGCCAATCACCGAGCTCGATGAGGC
DNA 2: GCCTCATCGAGCTCGGTGATTGGCTCAGAAG
B1: binds.
